B1: E540Q: RcSxph STX binding pocket mutant E540Q (protein)
chain: MAPTFQTALFFTIISLSFAAPNAKQVRWCAISDLEQKKCNDLVGSCNVPDITLVCVLRSSTEDCMTAIKDGQADAMFLDSGEVYEASKDPYNLKPIIAEPYSSNRDLQKCLKERQQALAKKMIGHYIPQCDEKGNYQPQQCHGSTGHCWCVNAMGEKISGTNTPPGQTRATCERHELPKCLKERQVALGGDEKVLGRFVPQCDEKGNYEPQQFHGSTGYSWCVNAIGEEIAGTKTPPGKIPATCQKHDLVTTCHYAVAMVKKSSAFQFNQLKGKRSCHSGVSKTDGWKALVTVLVEKKLLSWDGPAKESIQRAMSKFFSVSCIPGATQTNLCKQCKGEEGKNCKNSHDEPYYGNYGAFRCLKEDMGDVAFLRSTALSDEHSEVYELLCPDNTRKPLNKYKECNLGTVPAGTVVTRKISDKTEDINNFLMEAQKRQCKLFSSAHGKDLMFDDSTLQLALLSSEVDAFLYLGVKLFHAMKALTGDAHLPSKNKVRWCTINKLEKMKCDDWSAVSGGAIACTEASCPKGCVKQILKGEADAVKLEVQYMYEALMCGLLPAVQEYHNKDDFGPCKTPGSPYTDFGTLRAVALVKKSNKDINWNNIKGKKSCHTGVGDIAGWVIPVSLIRRQNDNSDIDSFFGESCAPGSDTKSNLCKLCIGDPKNSAANTKCSLSDKEAYYGNQGAFRCLVEKGDVAFVPHTVVFENTDGKNPAVWAKNLKSEDFELLCLDGSRAPVSNYKSCKLSGIPPPAIVTREESISDVVRIVANQQSLYGRKGFEKDMFQLFSSNKGNNLLFNDNTQCLITFDRQPKDIMEDYFGKPYYTTVYGASRSAMSSELISACTIKHC
B2: D794N: RcSxph STX binding pocket mutant D794N (protein)
chain: MAPTFQTALFFTIISLSFAAPNAKQVRWCAISDLEQKKCNDLVGSCNVPDITLVCVLRSSTEDCMTAIKDGQADAMFLDSGEVYEASKDPYNLKPIIAEPYSSNRDLQKCLKERQQALAKKMIGHYIPQCDEKGNYQPQQCHGSTGHCWCVNAMGEKISGTNTPPGQTRATCERHELPKCLKERQVALGGDEKVLGRFVPQCDEKGNYEPQQFHGSTGYSWCVNAIGEEIAGTKTPPGKIPATCQKHDLVTTCHYAVAMVKKSSAFQFNQLKGKRSCHSGVSKTDGWKALVTVLVEKKLLSWDGPAKESIQRAMSKFFSVSCIPGATQTNLCKQCKGEEGKNCKNSHDEPYYGNYGAFRCLKEDMGDVAFLRSTALSDEHSEVYELLCPDNTRKPLNKYKECNLGTVPAGTVVTRKISDKTEDINNFLMEAQKRQCKLFSSAHGKDLMFDDSTLQLALLSSEVDAFLYLGVKLFHAMKALTGDAHLPSKNKVRWCTINKLEKMKCDDWSAVSGGAIACTEASCPKGCVKQILKGEADAVKLEVQYMYEALMCGLLPAVEEYHNKDDFGPCKTPGSPYTDFGTLRAVALVKKSNKDINWNNIKGKKSCHTGVGDIAGWVIPVSLIRRQNDNSDIDSFFGESCAPGSDTKSNLCKLCIGDPKNSAANTKCSLSDKEAYYGNQGAFRCLVEKGDVAFVPHTVVFENTDGKNPAVWAKNLKSEDFELLCLDGSRAPVSNYKSCKLSGIPPPAIVTREESISDVVRIVANQQSLYGRKGFEKDMFQLFSSNKGNNLLFNDNTQCLITFDRQPKDIMENYFGKPYYTTVYGASRSAMSSELISACTIKHC
B3: F784Y: RcSxph STX binding pocket mutant F784Y (protein)
chain: MAPTFQTALFFTIISLSFAAPNAKQVRWCAISDLEQKKCNDLVGSCNVPDITLVCVLRSSTEDCMTAIKDGQADAMFLDSGEVYEASKDPYNLKPIIAEPYSSNRDLQKCLKERQQALAKKMIGHYIPQCDEKGNYQPQQCHGSTGHCWCVNAMGEKISGTNTPPGQTRATCERHELPKCLKERQVALGGDEKVLGRFVPQCDEKGNYEPQQFHGSTGYSWCVNAIGEEIAGTKTPPGKIPATCQKHDLVTTCHYAVAMVKKSSAFQFNQLKGKRSCHSGVSKTDGWKALVTVLVEKKLLSWDGPAKESIQRAMSKFFSVSCIPGATQTNLCKQCKGEEGKNCKNSHDEPYYGNYGAFRCLKEDMGDVAFLRSTALSDEHSEVYELLCPDNTRKPLNKYKECNLGTVPAGTVVTRKISDKTEDINNFLMEAQKRQCKLFSSAHGKDLMFDDSTLQLALLSSEVDAFLYLGVKLFHAMKALTGDAHLPSKNKVRWCTINKLEKMKCDDWSAVSGGAIACTEASCPKGCVKQILKGEADAVKLEVQYMYEALMCGLLPAVEEYHNKDDFGPCKTPGSPYTDFGTLRAVALVKKSNKDINWNNIKGKKSCHTGVGDIAGWVIPVSLIRRQNDNSDIDSFFGESCAPGSDTKSNLCKLCIGDPKNSAANTKCSLSDKEAYYGNQGAFRCLVEKGDVAFVPHTVVFENTDGKNPAVWAKNLKSEDFELLCLDGSRAPVSNYKSCKLSGIPPPAIVTREESISDVVRIVANQQSLYGRKGFEKDMFQLFSSNKGNNLLFNDNTQCLITYDRQPKDIMEDYFGKPYYTTVYGASRSAMSSELISACTIKHC
B4: F784L: RcSxph STX binding pocket mutant F784L (protein)
chain: MAPTFQTALFFTIISLSFAAPNAKQVRWCAISDLEQKKCNDLVGSCNVPDITLVCVLRSSTEDCMTAIKDGQADAMFLDSGEVYEASKDPYNLKPIIAEPYSSNRDLQKCLKERQQALAKKMIGHYIPQCDEKGNYQPQQCHGSTGHCWCVNAMGEKISGTNTPPGQTRATCERHELPKCLKERQVALGGDEKVLGRFVPQCDEKGNYEPQQFHGSTGYSWCVNAIGEEIAGTKTPPGKIPATCQKHDLVTTCHYAVAMVKKSSAFQFNQLKGKRSCHSGVSKTDGWKALVTVLVEKKLLSWDGPAKESIQRAMSKFFSVSCIPGATQTNLCKQCKGEEGKNCKNSHDEPYYGNYGAFRCLKEDMGDVAFLRSTALSDEHSEVYELLCPDNTRKPLNKYKECNLGTVPAGTVVTRKISDKTEDINNFLMEAQKRQCKLFSSAHGKDLMFDDSTLQLALLSSEVDAFLYLGVKLFHAMKALTGDAHLPSKNKVRWCTINKLEKMKCDDWSAVSGGAIACTEASCPKGCVKQILKGEADAVKLEVQYMYEALMCGLLPAVEEYHNKDDFGPCKTPGSPYTDFGTLRAVALVKKSNKDINWNNIKGKKSCHTGVGDIAGWVIPVSLIRRQNDNSDIDSFFGESCAPGSDTKSNLCKLCIGDPKNSAANTKCSLSDKEAYYGNQGAFRCLVEKGDVAFVPHTVVFENTDGKNPAVWAKNLKSEDFELLCLDGSRAPVSNYKSCKLSGIPPPAIVTREESISDVVRIVANQQSLYGRKGFEKDMFQLFSSNKGNNLLFNDNTQCLITLDRQPKDIMEDYFGKPYYTTVYGASRSAMSSELISACTIKHC
B5: F784C: RcSxph STX binding pocket mutant F784C (protein)
chain: MAPTFQTALFFTIISLSFAAPNAKQVRWCAISDLEQKKCNDLVGSCNVPDITLVCVLRSSTEDCMTAIKDGQADAMFLDSGEVYEASKDPYNLKPIIAEPYSSNRDLQKCLKERQQALAKKMIGHYIPQCDEKGNYQPQQCHGSTGHCWCVNAMGEKISGTNTPPGQTRATCERHELPKCLKERQVALGGDEKVLGRFVPQCDEKGNYEPQQFHGSTGYSWCVNAIGEEIAGTKTPPGKIPATCQKHDLVTTCHYAVAMVKKSSAFQFNQLKGKRSCHSGVSKTDGWKALVTVLVEKKLLSWDGPAKESIQRAMSKFFSVSCIPGATQTNLCKQCKGEEGKNCKNSHDEPYYGNYGAFRCLKEDMGDVAFLRSTALSDEHSEVYELLCPDNTRKPLNKYKECNLGTVPAGTVVTRKISDKTEDINNFLMEAQKRQCKLFSSAHGKDLMFDDSTLQLALLSSEVDAFLYLGVKLFHAMKALTGDAHLPSKNKVRWCTINKLEKMKCDDWSAVSGGAIACTEASCPKGCVKQILKGEADAVKLEVQYMYEALMCGLLPAVEEYHNKDDFGPCKTPGSPYTDFGTLRAVALVKKSNKDINWNNIKGKKSCHTGVGDIAGWVIPVSLIRRQNDNSDIDSFFGESCAPGSDTKSNLCKLCIGDPKNSAANTKCSLSDKEAYYGNQGAFRCLVEKGDVAFVPHTVVFENTDGKNPAVWAKNLKSEDFELLCLDGSRAPVSNYKSCKLSGIPPPAIVTREESISDVVRIVANQQSLYGRKGFEKDMFQLFSSNKGNNLLFNDNTQCLITCDRQPKDIMEDYFGKPYYTTVYGASRSAMSSELISACTIKHC
B6: F784S: RcSxph STX binding pocket mutant F784S (protein)
chain: MAPTFQTALFFTIISLSFAAPNAKQVRWCAISDLEQKKCNDLVGSCNVPDITLVCVLRSSTEDCMTAIKDGQADAMFLDSGEVYEASKDPYNLKPIIAEPYSSNRDLQKCLKERQQALAKKMIGHYIPQCDEKGNYQPQQCHGSTGHCWCVNAMGEKISGTNTPPGQTRATCERHELPKCLKERQVALGGDEKVLGRFVPQCDEKGNYEPQQFHGSTGYSWCVNAIGEEIAGTKTPPGKIPATCQKHDLVTTCHYAVAMVKKSSAFQFNQLKGKRSCHSGVSKTDGWKALVTVLVEKKLLSWDGPAKESIQRAMSKFFSVSCIPGATQTNLCKQCKGEEGKNCKNSHDEPYYGNYGAFRCLKEDMGDVAFLRSTALSDEHSEVYELLCPDNTRKPLNKYKECNLGTVPAGTVVTRKISDKTEDINNFLMEAQKRQCKLFSSAHGKDLMFDDSTLQLALLSSEVDAFLYLGVKLFHAMKALTGDAHLPSKNKVRWCTINKLEKMKCDDWSAVSGGAIACTEASCPKGCVKQILKGEADAVKLEVQYMYEALMCGLLPAVEEYHNKDDFGPCKTPGSPYTDFGTLRAVALVKKSNKDINWNNIKGKKSCHTGVGDIAGWVIPVSLIRRQNDNSDIDSFFGESCAPGSDTKSNLCKLCIGDPKNSAANTKCSLSDKEAYYGNQGAFRCLVEKGDVAFVPHTVVFENTDGKNPAVWAKNLKSEDFELLCLDGSRAPVSNYKSCKLSGIPPPAIVTREESISDVVRIVANQQSLYGRKGFEKDMFQLFSSNKGNNLLFNDNTQCLITSDRQPKDIMEDYFGKPYYTTVYGASRSAMSSELISACTIKHC

Type: binding
Conditions: for Kd: FP, 1 nM F-STX, 25° C., errors S.D.; for ΔΔG: ΔΔG = RT ln(Kd mutant or XSxph/Kd RcSxph), T = 298K, FP with F-STX

| Molecule | Kd [µM] | ΔΔG [kcal/mol] |
| --- | --- | --- |
| B1 | 10.6 ± 1.32 | 4.30 |
| B2 | 3.23 ± 0.397 | 3.60 |
| B3 | 0.0138 ± 0.001 | 0.37 |
| B4 | 0.048 ± 0.0068 | 1.11 |
| B5 | 1.51 ± 0.346 | 3.15 |
| B6 | 3.24 ± 0.508 | 3.60 |

From patent publication US20260034194A1, “PHARMACEUTICAL COMPOSITIONS AND METHODS OF TREATING PSP” (priority 2022, published 2026)
